Measurements taken from paper PMC7913109.

B1: Gluc1-IKKε (pSPICA-N1 human IKKε) (natural protein)
chain: MQSTANYLWHTDDLLGQGATASVYKARNKKSGELVAVKVFNTTSYLRPREVQVREFEVLRKLNHQNIVKLFAVEETGGSRQKVLVMEYCSSGSLLSVLESPENAFGLPEDEFLVVLRCVVAGMNHLRENGIVHRDIKPGNIMRLVGEEGQSIYKLTDFGAARELDDDEKFVSVYGTEEYLHPDMYERAVLRKPQQKAFGVTVDLWSIGVTLYHAATGSLPFIPFGGPRRNKEIMYRITTEKPAGAIAGAQRRENGPLEWSYTLPITCQLSLGLQSQLVPILANILEVEQAKCWGFDQFFAETSDILQRVVVHVFSLSQAVLHHIYIHAHNTIAIFQEAVHKQTSVAPRHQEYLFEGHLCVLEPSVSAQHIAHTTASSPLTLFSTAIPKGLAFRDPALDVPKFVPKVDLQADYNTAKGVLGAGYQALRLARALLDGQELMFRGLHWVMEVLQATCRRTLEVARTSLLYLSSSLGTERFSSVAGTPEIQELKAAAELRSRLRTLAEVLSRCSQNITETQESLSSLNRELVKSRDQVHEDRSIQQIQCCLDKMNFIYKQFKKSRMRPGLGYNEEQIHKLDKVNFSHLAKRLLQVFQEECVQKYQASLVTHGKRMRVVHETRNHLRLVGCSVAACNTEAQGVQESLSKLLEELSHQLLQDRAKGAQASPPPIAPYPSPTRKDLLLHMQELCEGMKLLASDLLDNNRIIERLNRVPAPPDV

Target: Gluc2-VP3 BTV8 (pSPICA-N2-VP3 BTV8)
Assay: split reporter (BiFC, NanoBiT)

Molecule	NLR (normalized luminescence ratio)
Gluc1-MAVS (pSPICA-N1 human MAVS) (from UniProt Q7Z434 1-540) (natural protein)	17.4
B1	17.7
